In patent US20060026702A1, “Phosphoinositide 3-kinase mediated inhibition of GPCRs” (DUKE UNIVERSITY, priority 2002, published 2006) one finds rate of agonist-dependent β2AR sequestration (125I-Cyanopindolol binding) with HEAT protein overexpressed data, which are given here for one substance.

The assay deals with endogenous βARK1 of HEK 293 cells (UniProt P25098). Put plainly: cell-based or functional assay.
Chain of endogenous βARK1 of HEK 293 cells (P25098 whole entry): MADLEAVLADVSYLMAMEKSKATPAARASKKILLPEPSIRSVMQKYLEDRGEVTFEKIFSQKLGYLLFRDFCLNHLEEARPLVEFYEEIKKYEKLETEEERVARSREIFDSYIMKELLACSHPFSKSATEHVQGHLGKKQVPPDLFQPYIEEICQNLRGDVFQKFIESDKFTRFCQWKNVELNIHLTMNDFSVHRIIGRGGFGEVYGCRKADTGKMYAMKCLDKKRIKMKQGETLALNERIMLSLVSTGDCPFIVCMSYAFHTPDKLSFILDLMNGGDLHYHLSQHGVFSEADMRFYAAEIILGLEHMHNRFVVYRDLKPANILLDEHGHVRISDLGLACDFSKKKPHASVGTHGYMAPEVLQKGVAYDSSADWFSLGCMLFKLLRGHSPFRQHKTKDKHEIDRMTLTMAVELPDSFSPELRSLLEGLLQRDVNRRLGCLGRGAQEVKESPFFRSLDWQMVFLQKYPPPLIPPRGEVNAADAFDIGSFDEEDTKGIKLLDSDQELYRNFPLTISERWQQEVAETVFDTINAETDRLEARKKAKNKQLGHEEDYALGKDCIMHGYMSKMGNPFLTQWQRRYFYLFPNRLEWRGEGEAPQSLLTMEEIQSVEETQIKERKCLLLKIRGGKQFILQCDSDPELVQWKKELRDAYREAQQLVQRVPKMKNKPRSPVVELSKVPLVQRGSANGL

Substance “endogenous PI3K of HEK 293 cells (enzyme)” displayed a rate of agonist-dependent β2AR sequestration (125I-Cyanopindolol binding) with HEAT protein overexpressed of over 60%.
